Laboratory results reported in publication doi:10.1101/2025.04.11.646618.

Key:
[1] = biological target: RPS4-HF (Arabidopsis) (UniProt Q9XGM3); test: co-IP
[2] = biological target: YFP-RPS4 (Arabidopsis) (UniProt Q9XGM3); test: co-IP

Question: Which stoichiometry N [1] does the source give for RRS1-R-GFP (receptor) here?
Answer: Its stoichiometry N is 1.

Question: RRS1-R-HF (receptor) was tested. Which stoichiometry N [2] did it give?
Answer: The stoichiometry N was 1.
